Results published in paper PMC13096800.

Target: apoptosis-inducing factor, mitochondrial (AIFM1) (human) (UniProt O95831)
Experiment: cross-linking; sulfo-SDA (0.5 mM) photo-cross-linking of AIFM1 at 1 mg/ml, pre-incubated on ice with 1 mM NADH for 1 h to induce dimerization; 10 mM HEPES-NaOH pH 7.8, 150 mM NaCl, 4 mM MgCl2, 0.5 mM TCEP; UVEN UV activation 0-180 s; SDS-PAGE, and LC-MS/MS of the 32-s sample

With “apoptosis-inducing factor, mitochondrial (AIFM1) (from UniProt O95831 103-613) (natural protein)” the stoichiometry N was 2.
